From patent publication US20250042994A1 (HAINAN SIMCERE ZAIMING PHARMACEUTICAL, published 2025)

T1: human CD19 on Raji cells (human, UniProt P15391 20-556)
T1 construct: whole, on cells
T1 sequence (looked up): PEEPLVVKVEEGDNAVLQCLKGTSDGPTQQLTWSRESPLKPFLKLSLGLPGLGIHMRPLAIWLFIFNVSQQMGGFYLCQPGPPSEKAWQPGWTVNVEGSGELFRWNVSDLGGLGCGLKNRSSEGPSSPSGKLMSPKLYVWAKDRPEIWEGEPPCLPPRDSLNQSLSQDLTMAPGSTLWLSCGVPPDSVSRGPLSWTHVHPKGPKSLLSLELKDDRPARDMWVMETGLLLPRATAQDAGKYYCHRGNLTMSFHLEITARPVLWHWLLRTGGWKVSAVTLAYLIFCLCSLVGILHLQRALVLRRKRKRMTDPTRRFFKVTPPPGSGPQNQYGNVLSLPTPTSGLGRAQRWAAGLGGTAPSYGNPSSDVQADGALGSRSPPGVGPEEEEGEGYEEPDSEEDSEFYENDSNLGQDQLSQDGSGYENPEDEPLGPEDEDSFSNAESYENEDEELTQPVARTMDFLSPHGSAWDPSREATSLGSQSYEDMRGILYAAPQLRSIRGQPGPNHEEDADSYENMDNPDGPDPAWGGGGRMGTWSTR

T2: human CD19 on CHO-K1-human CD19 cells (human, UniProt P15391 20-556)
T2 construct: whole, on cells; also called CHO-K1-human CD19-2C8
T2 sequence (looked up): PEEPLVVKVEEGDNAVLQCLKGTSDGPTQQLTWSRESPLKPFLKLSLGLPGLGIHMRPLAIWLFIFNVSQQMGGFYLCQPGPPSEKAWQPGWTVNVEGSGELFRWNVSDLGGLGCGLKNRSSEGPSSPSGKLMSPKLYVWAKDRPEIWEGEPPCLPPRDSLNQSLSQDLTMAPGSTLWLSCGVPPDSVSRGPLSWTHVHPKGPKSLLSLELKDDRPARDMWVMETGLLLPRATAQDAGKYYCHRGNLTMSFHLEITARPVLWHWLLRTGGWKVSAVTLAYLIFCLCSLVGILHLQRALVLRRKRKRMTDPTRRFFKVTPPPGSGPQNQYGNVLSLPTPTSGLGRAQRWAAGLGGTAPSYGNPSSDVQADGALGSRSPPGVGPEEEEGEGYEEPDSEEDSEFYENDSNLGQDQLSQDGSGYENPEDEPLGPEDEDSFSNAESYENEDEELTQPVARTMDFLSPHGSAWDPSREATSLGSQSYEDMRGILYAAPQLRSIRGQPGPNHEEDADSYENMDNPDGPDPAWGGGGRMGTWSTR

T3: cynomolgus monkey CD19 on peripheral blood B cells (cynomolgus monkey (Macaca fascicularis), UniProt A0A2K5W8L9 20-557)
T3 construct: whole, on cells; also called cynomolgus monkey B cells
T3 sequence: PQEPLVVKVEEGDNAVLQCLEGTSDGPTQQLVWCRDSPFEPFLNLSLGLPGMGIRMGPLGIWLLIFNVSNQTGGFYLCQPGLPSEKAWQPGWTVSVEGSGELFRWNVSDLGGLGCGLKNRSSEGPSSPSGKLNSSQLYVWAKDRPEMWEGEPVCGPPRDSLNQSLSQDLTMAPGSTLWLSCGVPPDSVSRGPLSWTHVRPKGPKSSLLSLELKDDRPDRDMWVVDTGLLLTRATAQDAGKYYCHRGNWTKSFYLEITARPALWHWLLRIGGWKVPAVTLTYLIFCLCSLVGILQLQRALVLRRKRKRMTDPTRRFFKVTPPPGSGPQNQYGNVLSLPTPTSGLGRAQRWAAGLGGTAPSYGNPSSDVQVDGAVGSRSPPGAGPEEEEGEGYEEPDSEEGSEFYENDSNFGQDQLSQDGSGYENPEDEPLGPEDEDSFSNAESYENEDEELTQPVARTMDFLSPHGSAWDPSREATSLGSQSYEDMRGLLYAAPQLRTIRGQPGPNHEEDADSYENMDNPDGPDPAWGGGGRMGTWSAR


What was measured:
human CD19 on Raji cells = biological target: T1, human CD19 on Raji cells; test: FACS on Raji cells
[1] = biological target: T2, human CD19 on CHO-K1-human CD19 cells; test: FACS on CHO-K1-human CD19 cells
[2] = biological target: T4, monkey CD19 on HEK293T-monkey CD19 cells (monkey); test: FACS on HEK293T-monkey CD19 cells
T4 construct: whole, on cells
In short: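 Antibody binding was read as MFI by flow cytometry and EC50 was taken from curve fitting. Before that, cells at 2×10⁶ cells/ml in PBS with 2% (w/w) BSA were exposed to samples for 2 h on ice and washed. Parental HEK293T cells were tested the same way.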

[3] = biological target: T3, cynomolgus monkey CD19 on peripheral …; test: FACS, cynomolgus PBMC, CD20+ B cells

Binder | EC50 (human CD19 on Raji cells) [nM] | Maximum mean fluorescence intensity (human CD19 on Raji cells) | EC50 [1] [nM] | Maximum mean fluorescence intensity [1] | Maximum mean fluorescence intensity [2] | Proportion of chimeric antibody positive cells to B cells (%) at 1 nM [3] [%] | Proportion of chimeric antibody positive cells to B cells (%) at 10 nM [3] [%] | Proportion of chimeric antibody positive cells to B cells (%) at 100 nM [3] [%] | EC50 [2] [nM]
F4.33.12 (antibody, human IgG1, V domains shown, human-murine chimeric antibody, human IgG1) VH: QVQLQQSGAELVRPGSSVKISCKGSGYAFSSYWMNWVKQRPGQGLEWIGQIYPGDGDTNYNGKFKGKATLTADKSSSTAYMQLSSLTSEDSAVYFCARAGFYYGSDSSMDYWGQGTSVTVSS VL: not shown | 2.6 | 28200 | 1.47 | 52500 | 50 | 1 | 1 | 2 | –
F4.21.2 (antibody, human IgG1, V domains shown, human-murine chimeric antibody, human IgG1) VH: QVQLKQSGPGLVQPSQSLSITCTVSGFSLSTYGVHWVRQSPGRGLEWLGVIWIGGTTDYNAAFISRLTISKDNSRGQVFFKMDSLQANDTAIYYCARKGYYKYDGGYYYAMDYWGQGTSVTVSS VL: DIQMTQSSSYLSVSLGGRVTITCKASDHINNWLAWYQQKPGNAPWLLISGATSLETGVPSRFSGSGSGKDYTLSISSLQTEDVATYYCQQYWSTPLTFGAGTKLELK | 2.69 | 30800 | 1.02 | 52600 | 39200 | 2 | 3 | 18 | 9.1
F3.126.15 (antibody, human IgG1, V domains shown, human-murine chimeric antibody, human IgG1) VH: QVQLQQPGAELVMPGASVKLSCKASGYTFTSYWMHWVKQRPGQGLEWIGEIDPSDSYTTYNQNFKGKATLTVDISTSTAYIQLSNLTSEDSAVYYCARLTGNYIHYWGQGTTLTVSS VL: DIVMTQSHKFMSTSVGDRVSITCKASQDVSPAVAWYQQRPGQCPKLLIFSSSYRSTGVPDRFTGSGSGTDFTFTISSVQAEDLAVYYCQQHYSLPLTFGAGTKLELK | 1.18 | 30300 | 2.47 | 56700 | 175000 | 16 | 27 | 49 | 5.57
F3.114.12 (antibody, human IgG1, V domains shown, human-murine chimeric antibody, human IgG1) VH: DVQLQESGPGLVKPSQSLSLTCSVTGYSITSGYDWNWIRQFPGNKLEWMGYISYDGKNNYNPSLRNRISITRDTSKNQFFLKLNSVTTEDTATYYCARRDLRGYFDVWGTGTTVTVSS VL: DIVLTQSPATLSVTPGDRVSLSCRASQSISNYLHWYQQKSHESPRLLIKYASLSISGIPSRFSGSGSGTDFTLSINSVETEDFGVYFCQQSNSWPLTFGAGTKLELK | 3.34 | 28700 | 2.32 | 50400 | 210000 | 40 | 90 | 99 | 1.56
F4.18.13 (antibody, human IgG1, V domains shown, human-murine chimeric antibody, human IgG1) VH: QVQLQQSGPELVKPGASVKISCKASGYAFSSFWMNWVKQRPGEGLEWIGRIYPGDGDTNYNGKFKGKATLTADDSSSTAYMQLSSLTSVDSAVYFCAREVIAAVVTTDFDYWGQGTTLTVSS VL: DIQMTQTTSSLSASLGDRVTISCRTSQDISNYLNWYLQKPDGTVKLLIYYTSGLHSGVPSRFSGSGSGTDYSLTISNLEPEDIATYFCQQGKTLPYTFGGGTKLEIK | 1.31 | 35200 | 0.6 | 51600 | 19700 | 2 | 8 | 21 | 26.2

Stronger by EC50 (human CD19 on Raji cells), values ahead:

EC50 (human CD19 on Raji cells) [nM] | Maximum mean fluorescence intensity (human CD19 on Raji cells) | EC50 [1] [nM] | Maximum mean fluorescence intensity [1] | Maximum mean fluorescence intensity [2] | Proportion of chimeric antibody positive cells to B cells (%) at 1 nM [3] [%] | Proportion of chimeric antibody positive cells to B cells (%) at 10 nM [3] [%] | Proportion of chimeric antibody positive cells to B cells (%) at 100 nM [3] [%] | EC50 [2] [nM] | Binder
0.31 | 32900 | 0.3 | 53700 | 80 | 1 | 2 | 2 | – | F3.121.4 (antibody, human IgG1, V domains shown, human-murine chimeric antibody, human IgG1) VH: QVQLQQPGAELVVPGTSVKLSCKASGYTFTNYWMHWVKQRPGQGLEWIGEIDPSDNYANYNQEFQGKATLTVDKSSSTAYMQLSSLTSDDSAVYYCARHDGYFGALDYWGQGTSVTVSS VL: EIVLTQSPTTMAASPGEKITITCSASSSISSNYLHWYQQKPGFSPKFLIYRTSNLASGVPARFSGSGSGTSYSLTIGTMEAEDVATYYCQQASSIPRMFTFGSGTKLEIK
0.93 | 34400 | 0.82 | 63100 | 138000 | 1 | 1 | 7 | 2.47 | F3.133.14 (antibody, human IgG1, V domains shown, human-murine chimeric antibody, human IgG1) VH: QVQLQQPGAELVMPGASVKLSCKASGYTFTNYWMHWVKQRPGQGLEWIGEIDPSDYYANYNQKFKGKATLTVDKSSSTAYMQLSSLTSEDSAVYYCARSHYYANSYNYWGQGTTLTVSS VL: EIELTQSPTTMAASPGEKITITCSASSSISSDYLHWYQQKPGFSPKLLIYRTSNLASGLPARFSGSGSGTSYSLTIGTMEAEDVATYYCQQGSSVPRMLTFGAGTKLELK
0.67 | 27300 | 0.1 | 14700 | 7380 | 2 | 2 | 12 | ~129 | F4.22.6 (antibody, human IgG1, V domains shown, human-murine chimeric antibody, human IgG1) VH: QVQLQQSGPELVKPGASVKISCKASGYAFSSFWMNWVKQRPGQGLEWIGRIYPGDGDTNYNGKFKGKATLTADKSSTTAYMHLSSLTSVDSAVYFCTRSVITAVVDWYFDVWGAGTTVTVSS VL: QIVLSQSPAILSASPGEKVTLTCRASSSVNFMHWYQQKPGSSPKPWIYATSNLASGAPARFSGSGSGTSYSLTISRVEAEDAAAYYCQQWSSYPIFTFGSGTKLEIK
0.69 | 25000 | 1.08 | 50000 | 70 | 1 | 2 | 3 | – | F4.35.5 (antibody, human IgG1, V domains shown, human-murine chimeric antibody, human IgG1) VH: EIQLQQSGPELVKPGASVKVSCKASGYAFTSYNMYWVKQSHGKSLEWIGYIDPYNGDTRYNQKFKGKATLTVDKSSSTAYMHLNSLTSEDSAVYYCTRSGTGRDYWGQGTTLTVSS VL: QIVLTQSPAIMSASPGEKVTMTCSASSSISYMFWFQQKPGSSPRLLIYDTSSLASGVPVRFSGSGSGTSYTLTISRMEAEDAATYYCQQWSNYPYTFGGGTKLEMK
0.56 | 26000 | 0.08 | 14800 | 662 | 2 | 2 | 3 | – | F4.4.6 (antibody, human IgG1, V domains shown, human-murine chimeric antibody, human IgG1) VH: QVQLQQSGAELARPGASVKLSCKASGYTFTSYWMQWVKQRPGQGLEWIGAIYPGDGDSRYTQKFKGKATLTADKSSSTAYMQLSSLASEDSAVYYCARSTTTVLGNNFEYWGQGTTLTVSS VL: QIVLTQSPAIMSALPGEKVTMTCSASSSVSSMHWYQQKSGTSPKRWIYDTSKLASGVPARFSGSGSGTSYSLTISSMEAEDAATYYCQQWSSNPWTFGGGTKLEIK
